Source: patent US20020146411A1, “Anticoagulant agents useful in treatment of thrombosis” (SmithKline Beecham Corporation, priority 1996, published 2002)
“Also recorded” adds a separate entry of the source.

Legend:
[1] = biological target: T1, Recombinant human Factor IX (rhFIX) (Homo sapiens, UniProt P00740, T194A); assay: BIAcore kinetics of Factor IX binding to mAb on protein A surface; conditions: rhFIX 49 nM, 5 mM Ca2+, biosensor
T1 construct: purchased Genetics Institute
Method: The kinetics of Factor IX binding to SB 249417 was assessed by BIAcore analysis with antibody bound to an immobilized protein A surface. Recombinant human Factor IX (rhFIX, Genetics Institute) at 49 nM was used and measurements performed in the presence of 5 mM Ca^2+. The interaction was characterized by rapid association, kass 2.0×10^5 M^−1 s^−1 and relatively slow off-rate, kdiss=4.1×10^−4 s^−1.

[2] = system: BC2 antibody; assay: BiaCore binding of Factor IX/Factor VII constructs to immobilized BC2; conditions: 200 nM construct, 25 mM MOPS pH 7.4, 0.15 M NaCl, 5 mM CaCl2
Method: A library of chimeric constructs composed of sequences of Factor IX spliced into the framework of the homologous protein Factor VII was constructed and used to map the epitope for the Factor IX BC2 mAb. See Cheung et al., Thromb. Res. 80, 419-427 (1995). Binding was measured using a BiaCore 2000 surface plasmon resonance device. The BC2 antibody was coupled directly to the chip using the NHS/EDC reaction. Binding was measured by 2 min of contact time at 20 uL/min with 200 nM of each of the given constructs in 25 mM MOPS, pH 7.4, 0.15 M NaCl, 5 mM CaCl2. Dissociation was monitored for 3 min using the same buffer with no protein. No binding was detected to the wild type construct in the presence of 50 mM EDTA.

[3] = system: rat carotid artery thrombosis; assay: Rat carotid artery thrombosis model, humanized mAbs, Example 8; assay type: in vivo; conditions: 3.0 mg/kg i.v. bolus, 60 minutes after onset of injury
Method: In order to evaluate the efficacy of humanized anti-Factor IX antibodies in prevention of arterial thrombosis, the rat carotid artery thrombosis model as described above in Example 3 was used. Baseline parameters were established for carotid blood flow, arterial pressure, heart rate, vessel patency and activated partial thromboplastin time (aPTT). Fifteen minutes thereafter, carotid injury was effected for […]. The parameters were determined 60 minutes after onset of carotid injury. Carotid thrombus was also extracted from the carotid artery and weighed.
All agents were administered intravenously 15 minutes before the onset of carotid injury. The following treatments were examined and compared to the anti-Factor IX mAb BC2.

T1 sequence (P00740 47-461 T194A): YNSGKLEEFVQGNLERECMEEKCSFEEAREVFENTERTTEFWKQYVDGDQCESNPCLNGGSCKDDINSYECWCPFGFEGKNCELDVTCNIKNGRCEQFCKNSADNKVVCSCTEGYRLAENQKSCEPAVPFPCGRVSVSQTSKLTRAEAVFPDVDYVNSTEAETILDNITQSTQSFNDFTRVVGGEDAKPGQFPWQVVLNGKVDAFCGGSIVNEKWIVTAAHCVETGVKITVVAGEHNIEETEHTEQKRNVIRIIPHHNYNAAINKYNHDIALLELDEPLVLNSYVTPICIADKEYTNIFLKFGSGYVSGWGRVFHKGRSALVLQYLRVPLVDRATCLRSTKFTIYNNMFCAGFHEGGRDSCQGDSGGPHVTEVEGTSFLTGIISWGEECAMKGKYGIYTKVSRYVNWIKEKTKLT

Molecule	kass [1]	kdiss [1]	Degree of Binding to BC2 [2]	effect on aPTT (FIG. 8) [3]
Chf9: mouse-human chimeric antibody directed against human Factor IX, chains F9CHLC and F9CHHC with BC2 variable regions (antibody) heavy: QIQLVQSGPELKKPGETVKISCKASGYTFTNYGMNWVKQAPGKGLKWMGWINTRNGKSTYVDDFKGRFAFSLESSASTANLQIDNLKDEDTATYFCTREGNMDGYFPFTYWGQGTLVTVSA light: QIVLSQSPAILSASPGEKVTMTCRASSSVNYMHWYQQKPGSSPKPWIYATSNLASGVPARFSGSGSGTSYSLTISRVEAEDAATYYCQQWSINPRTFGGGTKLEIK	240000 M⁻¹ s⁻¹	0.0003 s⁻¹	–	–
IX LC/VII HC: construct containing the Factor IX light chain and Factor VII heavy chain (protein) YNSGKLEEFVQGNLERECMEEKCSFEEAREVFENTERTTEFWKQYVDGDQCESNPCLNGGSCKDDINSYECWCPFGFEGKNCELDVTCNIKNGRCEQFCKNSADNKVVCSCTEGYRLAENQKSCEPAVPFPCGRVSVSQTSKLTRIVGGKVCPKGECPWQVLLLVNGAQLCGGTLINTIWVVSAAHCFDKIKNWRNLIAVLGEHDLSEHDGDEQSRRVAQVIIPSTYVPGTTNHDIALLRLHQPVVLTDHVVPLCLPERTFSERTLAFVRFSLVSGWGQLLDRGATALELMVLNVPRLMTQDCLQQSRKVGDSPNITEYMFCAGYSDGSKDSCKGDSGGPHATHYRGTWYLTGIVSWGQGCATVGHFGVYTRVSQYIEWLQKLMRSEPRPGVLLRAPFP	–	–	exhibit binding to BC2; also recorded: Binds	–
IX-A/VII: construct with the Factor IX gla and aromatic stack domains in Factor VII (protein) YNSGKLEEFVQGNLERECMEEKCSFEEAREVFENTERTTEFWKQYVDGDQCASSPCQNGGSCKDQLQSYICFCLPAFEGRNCETHKDDQLICVNENGGCEQYCSDHTGTKRSCRCHEGYSLLADGVSCTPTVEYPCGKIPILEKRNASKPQGRIVGGKVCPKGECPWQVLLLVNGAQLCGGTLINTIWVVSAAHCFDKIKNWRNLIAVLGEHDLSEHDGDEQSRRVAQVIIPSTYVPGTTNHDIALLRLHQPVVLTDHVVPLCLPERTFSERTLAFVRFSLVSGWGQLLDRGATALELMVLNVPRLMTQDCLQQSRKVGDSPNITEYMFCAGYSDGSKDSCKGDSGGPHATHYRGTWYLTGIVSWGQGCATVGHFGVYTRVSQYIEWLQKLMRSEPRPGVLLRAPFP	–	–	exhibit binding to BC2; also recorded: Binds	–
SB 249413: humanized anti-Factor IX mAb, heavy chain F9HZHC 1-0 (SEQ ID NO: 31), light chain F9HZLC 1-0 (SEQ ID NO: 44) (antibody, V domains shown) VH: QVQLVQSGSELKKPGASVKVSCKASGYTFTNYGMNWVRQAPGQGLEWMGWINTRNGKSTYVDDFKGRFVFSLDTSVSTAYLQISSLKADDTAVYYCAREGNMDGYFPFTYWGQGTLVTVSS VL: EIVLTQSPATLSLSPGERATLSCRASSSVNYMHWYQQRPGQAPRLLIYATSNLASGIPARFSGSGSGTDFTLTISSLEPEDFAVYYCQQWSINPRTFGGGTKVEIKR	650000 M⁻¹ s⁻¹	0.0028 s⁻¹	–	modest effect
SB 249415: humanized anti-Factor IX mAb, heavy chain F9HZHC 1-1 (SEQ ID NO: 52), light chain F9HZLC 1-1 (SEQ ID NO: 57) (antibody, V domains shown) VH: QVQLVQSGSELKKPGASVKVSCKASGYTFTNYGMNWVRQAPGQGLKWMGWINTRNGKSTYVDDFKGRFVFSLDSSVSTAYLQISSLKADDTAVYYCTREGNMDGYFPFTYWGQGTLVTVSS VL: EIVLTQSPATLSLSPGERATLSCRASSSVNYMHWYQQRPGQAPKPWIYATSNLASGVPARFSGSGSGTDFTLTISSLEPEDFAVYYCQQWSINPRTFGGGTKVEIKR	750000 M⁻¹ s⁻¹	0.00018 s⁻¹	–	modest effect

Now from value to molecule, other results behind:

kass [1]	kdiss [1]	Molecule	Degree of Binding to BC2 [2]	effect on aPTT (FIG. 8) [3]
1.1e+06 M⁻¹ s⁻¹	0.0012 s⁻¹	SB 257732: humanized anti-Factor IX mAb, heavy chain F9HZHC 3-0 (SEQ ID NO: 89), light chain F9HZLC 3-0 (SEQ ID NO: 99) (antibody, V domains shown) VH: MGWSCIILFLVATATGVHSQIQLVQSGSELKKPGASVKVSCKASGYTFTNYGMNWVRQAPGQGLEWMGWINTRNGKSTYVDDFKGRFVFSLDTSVSTAYLQISSLKAEDTAVYFCTREGNMDGYFPFTYWGQGTLVTVSS VL: MGWSCIILFLVATATGVHSQIVLTQSPSSLSASVGDRVTITCRASSSVNYMHWYQQKPGKAPKPWIYATSNLASGVPSRFSGSGSGTDYTLTISSLQPEDFATYYCQQWSINPRTFGGGTKLEIKRTVV	–	–
520000 M⁻¹ s⁻¹	0.00041 s⁻¹	SB 249416: humanized anti-Factor IX mAb, heavy chain F9HZHC 1-1 (SEQ ID NO: 52), light chain F9HZLC 1-2 (SEQ ID NO: 62) (antibody, V domains shown) VH: QVQLVQSGSELKKPGASVKVSCKASGYTFTNYGMNWVRQAPGQGLKWMGWINTRNGKSTYVDDFKGRFVFSLDSSVSTAYLQISSLKADDTAVYYCTREGNMDGYFPFTYWGQGTLVTVSS VL: EIVLTQSPATLSLSPGERATLSCRASSSVNYMHWYQQRPGQAPKPWIYATSNLASGVPARFSGSGSGTDYTLTISSLEPEDFAVYYCQQWSINPRTFGGGTKVEIKR	–	modest effect
920000 M⁻¹ s⁻¹	0.00099 s⁻¹	SB 257731: humanized anti-Factor IX mAb, heavy chain F9HZHC 1-1 (SEQ ID NO: 52), light chain F9HZLC 1-3 (SEQ ID NO: 78) (antibody, V domains shown) VH: QVQLVQSGSELKKPGASVKVSCKASGYTFTNYGMNWVRQAPGQGLKWMGWINTRNGKSTYVDDFKGRFVFSLDSSVSTAYLQISSLKADDTAVYYCTREGNMDGYFPFTYWGQGTLVTVSS VL: MGWSCIILFLVATATGVHSQIVLTQSPATLSLSPGERATLSCRASSSVNYMHWYQQRPGQAPKPWIYATSNLASGVPARFSGSGSGTDYTLTISSLEPEDFAVYYCQQWSINPRTFGGGTKVEIK	–	modest effect
